This is an account of results in patent publication US20130059782.

This data set deals with full-length TF his-tag modified protein in yeast-derived microvesicles (TT-173): mature hTF with Asn124Ala mutation and six histidines at the C-terminus.

B1: activated coagulation Factor VII (purified commercial FVIIa) (protein)
chain: ANAFLEELRPGSLERECKEEQCSFEEAREIFKDAERTKLFWISYSDGDQCASSPCQNGGSCKDQLQSYICFCLPAFEGRNCETHKDDQLICVNENGGCEQYCSDHTGTKRSCRCHEGYSLLADGVSCTPTVEYPCGKIPILEKRNASKPQGRIVGGKVCPKGECPWQVLLLVNGAQLCGGTLINTIWVVSAAHCFDKIKNWRNLIAVLGEHDLSEHDGDEQSRRVAQVIIPSTYVPGTTNHDIALLRLHQPVVLTDHVVPLCLPERTFSERTLAFVRFSLVSGWGQLLDRGATALELMVLNVPRLMTQDCLQQSRKVGDSPNITEYMFCAGYSDGSKDSCKGDSGGPHATHYRGTWYLTGIVSWGQGCATVGHFGVYTRVSQYIEWLQKLMRSEPRPGVLLRAPFP
Take B1: the “amidolytic activity of the TF:FVIIa complex (chromogenic substrate S-2288), TT-173 with or without added PS” value was “there was no appreciable differences in the amidolytic activity between TT-173 with or without PS at the three concentrations of TT-173 tested, and at both concentrations of FVIIa used, 50 nM (not shown) or 500 nM (FIG. 7)”.
